Source: US20050079574A1

Target: IGF1 (Insulin-like Growth Factor 1) (UniProt P05019)
Test: IC50 (uM) column of the drawn table; phage clone of the F(ab')2 L3/H3 library on the 4D5 template, IC50 analysed as in Sidhu et al. (P-0517); source oligo (DVK)7

Row | IC50 [µM] | Binder
1 | 0.3 | SEQ ID NO 69 (antibody, part only; not given: template light chain, V domains shown, part only) VH: EVQLVESGGGLVQPGGSLRLSCAASGFNIKDTYIHWVRQAPGKGLEWVARIYPTNGYTRYADSVKGRFTISADTSKNTAYLQMNSLRAEDTAVYYCSRSRGWWTAAMDVWGQGTLVTVSS
2 | 15 | SEQ ID NO 70 (antibody, part only; not given: template light chain, V domains shown, part only) VH: EVQLVESGGGLVQPGGSLRLSCAASGFNIKDTYIHWVRQAPGKGLEWVARIYPTNGYTRYADSVKGRFTISADTSKNTAYLQMNSLRAEDTAVYYCSRASRDWYGAMDVWGQGTLVTVSS
